Test results published in PMC9841417 (Nucleic Acids Research, 2023).
Where a chain is given by its changes, count along the chain named. Names and notes keep the numbering of the source.

B1: Lhr-CTD (aa 863-1507) R915A-T1100A-D1366A (domain or fragment, Mycobacterium smegmatis, UniProt A0QT91 863-1507, looked up)
chain: SPLAERRAAALALDTVLLSELLGRVELRELLDPAVVASTSAQLQHLTPERAAADAEGVADLLRLLGPLTEADIAQRCTADNIGAWLDGLHAAKRALPVTYAGQTWWAAVEDIGLLRDGIGVPVPVGVPAAFTESASDPLGDLIGRYARTRGPFTTEQTAARFGLGVRVASDVLSRMAVDGRLIRGEFAADLSGEQWCDAQVLKILRRRSLAALRAQVEPVSTDAYARFLPSWQHVGSANTTGIDGLATVIEQLAGVPIPASAVESLVFPQRVRDYQPAMLDELLASGEVMWSGAGQIGNGDGWVAFHLADTAPLTLTHGAEIEFTDTHRVILETLGHGGAYFFRQLTDGTVEGTAGQELKQALWELIWAGWVTGDTFAPVRAVLSGPRRSGAPAHRQRQRPPRLSRYSVAHAQTRGTDPTVSGRWSALPAAEPDSTVRAHFQAELLLGRHGVLTKGAVGAEGVPGGFATLYKVLSTFEDAGRCQRGYFVESLGGAQFAVASTVARLRSYLDNVDPERPEYHAVVLAATDPANPYGAALGWPTDSEAHRPGRKAGALVALVDGRLVWFLERGGRSLLSFGADADAQRAAAGALTDLVSAGRIPSLLVERINGVAVLDPDVDAERAVVQDALLGAGLSRTPRGLRLR
B2: Lhr-CTD (aa 863-1507) H1199A-R1206A-R1286A (domain or fragment, Mycobacterium smegmatis, UniProt A0QT91 863-1507, looked up)
chain: B1 chain with A53R, A238T, H337A, R344A, R424A, A504D
B3: Full-length Lhr H1199A-R1206A-R1286A (natural protein, Mycobacterium smegmatis, UniProt A0QT91 1-1507, looked up)
chain: MTTNGADPLGRFSALTREWFTTAFAAPTPAQADAWSAISEGNNTLVIAPTGSGKTLAAFLWAIDRLADPAREPSQGTQVLYVSPLKALAVDVERNLRTPLTGITRVAERHGLPAPSITVGVRSGDTPPNQRRAMIANPPDVLITTPESLFLMLTSAARETLTSVRTVIVDEVHAVAATKRGAHLALSLERLDQLLDTPAQRIGLSATVRPPEEVARFLSGQAPTTIVCPPAAKTFDLSVQVPVPDMANLDNNSIWPDVEERIVDLVEAHNSSIVFANSRRLAERLTSRLNEIHAERSGIELPAGPNPEVGGGAPAHLMGSGQANGAPPLLARAHHGSVSKEQRAQVEDDLKSGRLRAVVATSSLELGIDMGAVDLVIQVEAPPSVASGLQRVGRAGHQVGEISQGVLFPKHRTDLIGCAVTVQRMQTGDIETLRVPANPLDVLAQHTVAVAALEPVDADAWFDAVRRSAPFATLPRSAFEATLDLLSGKYPSTEFAELRPRLVYDRDTGTLTARPGAQRLAVTSGGAIPDRGMFTVYLASETEKPSRVGELDEEMVYESRPGDVISLGATSWRITEITHDRVLVIPAPGQPARLPFWRGDSVGRPAELGAAVGAFTGELASLDRKAFDKRCQKMGFAGYATDNLHQLLREQREATGVVPSDTTFVVERFRDELGDWRVILHSPYGLRVHGPLALAVGRRLRERYGIDEKPTASDDGIIVRLPDSGDTPPGADLFVFDADEIEPIVTAEVGGSALFASRFRECAARALLLPRRHPGKRSPLWHQRQRAAQLLDIARKYPDFPIVLEAVRECLQDVYDVPALIELMHKIAQRRLRIVEVETATPSPFAASLLFGYVGAFMYEGDSPLAERRAAALALDTVLLSELLGRVELRELLDPAVVASTSAQLQHLTPERAARDAEGVADLLRLLGPLTEADIAQRCTADNIGAWLDGLHAAKRALPVTYAGQTWWAAVEDIGLLRDGIGVPVPVGVPAAFTESASDPLGDLIGRYARTRGPFTTEQTAARFGLGVRVASDVLSRMAVDGRLIRGEFAADLSGEQWCDAQVLKILRRRSLAALRAQVEPVSTDAYARFLPSWQHVGSTNTTGIDGLATVIEQLAGVPIPASAVESLVFPQRVRDYQPAMLDELLASGEVMWSGAGQIGNGDGWVAFHLADTAPLTLTHGAEIEFTDTHRVILETLGAGGAYFFAQLTDGTVEGTAGQELKQALWELIWAGWVTGDTFAPVRAVLSGPRRSGAPAHRQRQRPPRLSRYSVAHAQTRGTDPTVSGAWSALPAAEPDSTVRAHFQAELLLGRHGVLTKGAVGAEGVPGGFATLYKVLSTFEDAGRCQRGYFVESLGGAQFAVASTVDRLRSYLDNVDPERPEYHAVVLAATDPANPYGAALGWPTDSEAHRPGRKAGALVALVDGRLVWFLERGGRSLLSFGADADAQRAAAGALTDLVSAGRIPSLLVERINGVAVLDPDVDAERAVVQDALLGAGLSRTPRGLRLR

Molecular target: the molecule itself
Test: SEC

Protein	stoichiometry N
B1	4
B2	2
B3	2
